{
  "source": "patent US10677783B2",
  "about": "“Method for evaluating effect of cytokine on metabolic activity of cytochrome P450, and drug screening method” (Corning Incorporated, priority 2012, dated 2020)",
  "molecules": {"B1": {"name": "Epidermal Growth Factor (protein, UniProt P01133 23-1207, looked up)", "Pro-epidermal growth factor": "PQHWSCPEGTLAGNGNSTCVGPAPFLIFSHGNSIFRIDTEGTNYEQLVVDAGVSVIMDFHYNEKRIYWVDLERQLLQRVFLNGSRQERVCNIEKNVSGMAINWINEEVIWSNQQEGIITVTDMKGNNSHILLSALKYPANVAVDPVERFIFWSSEVAGSLYRADLDGVGVKALLETSEKITAVSLDVLDKRLFWIQYNREGSNSLICSCDYDGGSVHISKHPTQHNLFAMSLFGDRIFYSTWKMKTIWIANKHTGKDMVRINLHSSFVPLGELKVVHPLAQPKAEDDTWEPEQKLCKLRKGNCSSTVCGQDLQSHLCMCAEGYALSRDRKYCEDVNECAFWNHGCTLGCKNTPGSYYCTCPVGFVLLPDGKRCHQLVSCPRNVSECSHDCVLTSEGPLCFCPEGSVLERDGKTCSGCSSPDNGGCSQLCVPLSPVSWECDCFPGYDLQLDEKSCAASGPQPFLLFANSQDIRHMHFDGTDYGTLLSQQMGMVYALDHDPVENKIYFAHTALKWIERANMDGSQRERLIEEGVDVPEGLAVDWIGRRFYWTDRGKSLIGRSDLNGKRSKIITKENISQPRGIAVHPMAKRLFWTDTGINPRIESSSLQGLGRLVIASSDLIWPSGITIDFLTDKLYWCDAKQSVIEMANLDGSKRRRLTQNDVGHPFAVAVFEDYVWFSDWAMPSVMRVNKRTGKDRVRLQGSMLKPSSLVVVHPLAKPGADPCLYQNGGCEHICKKRLGTAWCSCREGFMKASDGKTCLALDGHQLLAGGEVDLKNQVTPLDILSKTRVSEDNITESQHMLVAEIMVSDQDDCAPVGCSMYARCISEGEDATCQCLKGFAGDGKLCSDIDECEMGVPVCPPASSKCINTEGGYVCRCSEGYQGDGIHCLDIDECQLGEHSCGENASCTNTEGGYTCMCAGRLSEPGLICPDSTPPPHLREDDHHYSVRNSDSECPLSHDGYCLHDGVCMYIEALDKYACNCVVGYIGERCQYRDLKWWELRHAGHGQQQKVIVVAVCVVVLVMLLLLSLWGAHYYRTQKLLSKNPKNPYEESSRDVRSRRPADTEDGMSSCPQPWFVVIKEHQDLKNGGQPVAGEDGQAADGSMQPTSWRQEPQLCGMGTEQGCWIPVSSDKGSCPQVMERSFHMPSYGTQTLEGGVEKPHSLLSANPLWQQRALDPPHQMELTQ", "modifications": "Pro-epidermal growth factor", "notes": "Epidermal Growth Factor used as the cytokine"}},
  "type_in_all_cases": "cell-based, human",
  "key": {"[1]": {"tested_on": "CYP3A4", "experiment": "CYP3A4 mRNA expression by RT-qPCR in spheroid-shaped FLC-4 cells (example, MICRO-SPACE)", "conditions": "EGF 10 ng/mL, drug-free vs cytokine-free and drug-free; FIG. 20", "source_text": "(§1) A plurality of culture chambers 10a are formed on the bottom culture surface of each well 21a. Each culture chamber 10a includes culture rooms 11a each having the equivalent diameter D of 200 μm and the height H of 100 μm. The width W of each wall 12a is 10 μm.\n(§2) As cells to be cultured, FLC-4 cells which are established hepatocyte cell lines […] were used.\nAs a culture medium, a DMEM/F 12 culture medium containing 10% fetal bovine serum (FBS) was used. A cell suspension was adjusted at a cell seeding density of 16×10^5 cells/mL.\nThe cells were cultured in a CO2 incubator for 10 to 11 days. The culture medium was replaced once every three days.\n(§3) The total amount of old culture medium was removed from each well by using a pipette (culture medium removing process).\nA test solution or a control solution was added to each well (test solution addition process).\nThe cells were incubated in a CO2 incubator for eight hours, 24 hours, or 48 hours at 37° C. (contact process). […]\nThe analysis was made using a total amount of 20 μL of reaction liquid containing 9.6 μL of EagleTaq Master Mix with ROX (Roche, Branchburg, N.J., USA), 0.96 μL of 20× Assays-on-Demand™ Gene Expression Assay Mix (Applied Biosystems), 7.1 μL of sterilized MiliQ water, and 1.8 μL of cDNA diluted by a factor of 5, and the reaction liquid was measured by Real-time PCR."}, "[2]": {"tested_on": "CYP3A4", "experiment": "Amount of CYP3A4 protein by western blotting in spheroid-shaped FLC-4 cells (example, MICRO-SPACE)", "source_text": "as §1, §2\n(§4) Epidermal Growth Factor (EFG) was used as the cytokine.\n(§5) DMEM/F12 (DMEM/E12 FBS(−)) containing no serum was used as a solvent for each test solution.\n(§6) To study the cytokine concentrations of the second and third test solutions, test solutions respectively having EGF concentrations of 0.1 ng/mL, 1 ng/mL, and 10 ng/mL were prepared. Note that the cells were cultured in each test solution in advance to obtain a cell survival rate, and it was confirmed that the cell survival rate at these concentrations was 80% or more.\nThe total amount of old culture medium was removed from each well by using a pipette (culture medium removing process). […]\n(§7) The cells corresponding to three to six wells were sonicated by a Lysis buffer containing 0.1% protease inhibitor cocktail and 1 mM PMSF (Phenylmethyl sulfonyl fluoride). […] ImmunoStar LD (Wako Pure Chemical Industries, Ltd.) was used as protein and was detected using LAS-1000 plus (Fujifilm, Tokyo)."}, "[3]": {"tested_on": "CYP3A4", "experiment": "Amount of CYP3A4 protein by western blotting in FLC-4 cells on flat 24-well plate (comparative example, CONFLUENT)", "protocol": "As the culture chamber, a commercially-available 24-well plate having a flat culture surface was used. The cell culture grade was used as the grade for the culture plate.\nExcept for the above-mentioned conditions, the comparative example was carried out under the same conditions as those for the example.\nas §4, §5, §6, §3\nEach test solution for studying the cytokine concentration was added to each well (test solution addition process). […]\nas §7"}, "[4]": {"tested_on": "FLC-4 cells", "experiment": "Cell survival rate of cells cultured in cytokine test solutions", "conditions": "EGF concentrations of 0.1, 1 and 10 ng/mL", "protocol": "as §6"}, "[5]": {"conditions": "EGF 0, 0.1, 1, 10 ng/mL, western blotting"}},
  "data": [
    {"molecule": "B1", "values": [
      {"measurement": "value of the metabolic function of CYP3A4 (mRNA expression level), second test solution versus first test solution", "setting": "[1]", "result": "lower"},
      {"measurement": "function of CYP3A4 (amount of CYP3A4 protein, bands), concentration dependency", "setting": "[2]; [5]", "result": "decreases depending on the concentration"},
      {"measurement": "amount of CYP3A4 protein, second test solution versus first test solution", "setting": "[2]; EGF 10 ng/mL (M10) vs 0 ng/mL (M0), FIG. 19", "result": "M0 is greater than M10"},
      {"measurement": "function of CYP3A4 (amount of CYP3A4 protein, bands), concentration dependency", "setting": "[3]; [5]", "result": "the concentration dependency was not confirmed"},
      {"measurement": "amount of CYP3A4 protein, second test solution versus first test solution", "setting": "[3]; EGF 10 ng/mL (C10) vs 0 ng/mL (C0), FIG. 19", "result": "C0 and C10 are nearly equal"},
      {"measurement": "cell survival rate", "setting": "[4]", "result": "≥ 80", "unit": "%"}
    ]}
  ]
}
